Test: yeast display, Sf9 membrane polyspecificity reagent, FACS + sequencing; frameworks hold sequencing errors
Method in brief: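 Genes from sorted yeast were amplified by colony PCR, read by MiSeq 2 × 250 sequencing and filtered on CDR length. These cells carried a synthetic nanobody library in Saccharomyces cerevisiae BJ5465 and were sorted by FACS into low and high (top ~1%) gates on anti-HA and streptavidin fluorescence. Polyreactivity is labelled according to the gate of origin.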

Row | Sequence | polyreactivity (PSR sort gate)
1 | QVQLVESVGGLVQAGGSLRLSCAASGSTFAGYAMGWYRQAPGKERELVATITYSGGSTYYADSVKGRFTISRDNAKNTVYLQMNSLKPEDTEVYYCAKKASYWWGYEYWGQGTQVTVSS | low polyreactivity
2 | QVQLVESVGGLVQAGGSLRLSCAASGSTFRYNAMGWYRQAPGKERELVATISSDGITYYADSVNGRFTISRDNAKNTVYLQMNRLKPEDTAVYYCAASYAGGFDYWGQGTQVTVSS | high polyreactivity
3 | QVQLVESVGGLVQAGGSLRLSCAASGSTFVGNAMGWYRQAPGKERELVAAITGGGGSTYYADSVKGRFTISRDNAKNTVYLQMNSLKPEDTAVYYCAREYTYYPRWVGYDAYGEDYWGQGTQVTVSS | low polyreactivity
4 | QVQLVESVGGLVQAGGSLRLSCAASGSTFYENTMGWYRQAPGKERELVAAISFRGGSRYYADSVKGRFTISRDNAKNTVYLQMNSLKPEDTAVYYCNADDSPVPSIRFDYWGEGTQVTVSS | low polyreactivity
5 | QVQLVESVGGLVQAGGSLRLSCAASGSTFYFNAMGWYRQAPGKERELVAAIDWSGGSTYYADSVKGRFTISRDNAKNTVYLQMNSLKPEDTAVYYCAAPYHYYGNTVGYADYDYWGQGTQVTVSS | low polyreactivity
6 | QVQLVESVGGLVQAGGSLRLSCAASGSTIRYYAIAWYRQAPGKERELVAAITSSGGRTYYADSVKGRFTISRDYAKNTVYLQMNSLKPEDTAVYYCAAYAYYHTGDDYWGQGTQVTVSS | high polyreactivity
7 | QVQLVESVGGLVQAGGSLRLSCAASGSTLYQYAMGWYRQAPGKERELVAAITKSGGRTYYADSVKGRFTISRDNAKNTVYLQMNSLKPEDTAVYYCNVVRGSYSSGGDYWGQGTQVTVSS | high polyreactivity
8 | QVQLVESVGGLVQAGGSLRLSCAASGYIFGHYTMRWYRQAPGKERELVAGISSGGITYYADSVKGRFTISRDNAKNTVYLQMNSLKPEDTAVYYCAVGTRVKYDYWGQGTQVTVSS | high polyreactivity
9 | QVQLVESVGGLVQAGGSLRLSCAASGYTFPDYAMGWYRQAPGKEREFVATISWSGTSTYYADSVKGRFTISRDNAKNTVYLQMNSLKPEDTAVDYCNASAYYPPSSSRYDYWGQGTQVTVSS | low polyreactivity
10 | QVQLVESVGGLVQAGGSLRLSCAASRIFRGYAMGRYRQAPGKERELVAAIRRGGSTNYADSVKGRFTISRDNAKNSVYFQMNSLKPEDTEVYYCAADFYYDRDVDYWGQGTQVTVSS | high polyreactivity
11 | QVQLVESVGGLVQAGGSLRLSCAAYGLTFRYYAMGWYRQSPGKESELDAAISSGGSTNYADSVKGRFTISRDNAKNTVYLQMNSLKPEDTAVYYCAAVSNSKWGRWGRAKYNYWGQGTQVTVSS | high polyreactivity
12 | QVQLVESVGGLVQAGGSLRLSCAAYGYTFYSNAMGWYRQAPGKDRELVASIRSRGRSTYYADSVKGRFTISRDNAKNTVYLQMNSLKPEDTAVYYCAPLPNNPAVYAYDYWGEGTQVTVSS | low polyreactivity
13 | QVQLVESVGGLVQAGGSLRLSCASSGFTFRFYVMGWSRQAPGKERELVAAITASGGTTYYADSVKGRFTISRDNAKNTVYLQMNSLKPEDTAVYYCNARYYYLYGYDYWGQGTQVTVSS | high polyreactivity
14 | QVQLVESVGGLVQAGGSLRLSCASSGRIFAWYGMGSYRQAPGKEMELVAAINSGGRTYYEDSVKGRFTISRVNAKNTVYLQMNSLKPEDTAVYYCAAKLAAYGWRFHYGYWGQGTQVTVSS | high polyreactivity
15 | QVQLVESVGGLVQAGGSLRLSCDATGNTFRIYAMGWYIHAPGKERQLVAAISQSGGSTYYADSVKGRFTISRDNAKNTVYLQMHSLKPEDTAVYYCNRRFAPFWGRDGYWGQGTQVTVSS | high polyreactivity
16 | QVQLVESVGGLVQAGGSLRLSSAASGFTFKYYAMVWYRQAPGKERELVAAISWSGTRTYYADSVKGRVTISRDNAKYTVYLQMNSLKPEDTAVYYCDADFNGRYDYWGQGTQVTVSS | high polyreactivity
17 | QVQLVESVGGLVQAGGSLRLSSAASGFTIVGNTMGWSRQAPGKERELVASINTNGGSTYYADSVKGRFTISRDNAKNTVYLQINSLKPEDTAVYYCNARSWYPYDYWGQGTQVTVSS | low polyreactivity
18 | QVQLVESVGGLVQAGGSLRLSSAASGRTFRYYTMVWYTQAPGKEREFVAAISSTGGTYYADSVKGRFTISRDNAKNTVYLQMNSLKPEDTAVYYCAATFIQVVVNVQMYDYDYWGQGTQVTVSS | low polyreactivity
19 | QVQLVESVGGLVQAGGSLRLTCAASGSIFKYYDMGWYRQAPGTERELVAAISSNGGRTYYADSVKGRFTISRDNAKNTDYLQMNSLKPEDTAVYYCARRFRRTGESEYDYWGQGTQVNVSS | high polyreactivity
20 | QVQLVESVGGLVQAGGSLSLSCAASGIIFVPYAMVWYRQAPGKERELVAAISSGGSTDYADSVKGRFTISRDNAKNTVYLQMNSLKPEDTAVYYCNKYYRGIFKAHRDYWGQGTQVTLSS | low polyreactivity
21 | QVQLVESVGGLVQAGGSLSLSCAASGSTLSDNAMGWYRQAPGKERELVAAIRRVGSTNYADSVKGRFTISRDNAKNTVYLQMNSLKPEDTAVYYCAVRHVWPWQGYDYWGQGTQVTVSS | low polyreactivity
22 | QVQLVESVGGLVQAGGTLRLSCAASGSTFNINAMGWYRQAPGKERELVAAISWSGDITYYADSVKGRFTISRDNAKNTVYLQMNSLKPEDTAVYYCNTDDPVNYWYAEYDYWGQGTQVTVSS | low polyreactivity

Row | Sequence | polyreactivity (PSR sort gate)
23 | QVQLVESVGGLVQAGGTLRLSCSASGSTFNVYAMGWYIQATGKERELVAAITRRGGSTYYADSVKGRFTISRDNAKNTVYLQMNSLKPEDTADYYFAARRRLDYYYYNYWGQGTQETVSS | high polyreactivity
24 | QVQLVESVGGLVQAGGTLRLTCAASGSNFKAYAMRWYRQATGKERELVARIRYRGGSTYNADSVKGRFTISRDNAKNTVFLQMNSLKPEETAVYYCAARLSPYHTDRGDYLGQGTQVTVSS | high polyreactivity
25 | QVQLVESVGGLVQAGGTLSLSCAASGFTFRNYAMGWYRQAPRKEREFVAAISRRGGSTYYADSVKGRITISRDNAKNTVYLQINSLKPEDSAVYYCATEPGKQNTYRMDYCGQGTQVTVSS | high polyreactivity
26 | QVQLVESVGGLVQAGVSLRLSGAASGNTFVPYAMGWSRQAPGKESELVAAISLRGGSTYYADSVKGRFTISRDNAKNTVYLQMNSLKPEDTAVYYCAARTFYRPGLAGGYWGQGTQVTVAS | high polyreactivity
27 | QVQLVESVGGLVQARGSLRLSCAASASIFPSYAMGWYIQAPGKERELVAVISWRGGSTYYADSVKGRFTISRDNAKNTVYLQMNRLKPEDTAVYYCAARSWDPKLSTYPFHFNYWGQGTQVTVSS | high polyreactivity
28 | QVQLVESVGGLVQSGGSLRLSCAASGFIFVVYAMGSYRQAPGKERELVATISSGGGTYYADSVKGRFTISRDNAKNTVYLQMNSLKPEDTAVYYCAARRRRLYHFGGNNYWGQGTQVTVSS | high polyreactivity
29 | QVQLVESVGGVVQAGGSLGLSCAASGRPFGRNVMGWYRQAPGKERELVAAISRSGGSTYYADSVKGRFTISRDNAKNTVYFQMNSLKPEDTAVYYCAAYSVGDYYWGQGTQVTVSS | high polyreactivity
30 | QVQLVESVGRLVQAGGSLRLSCAASGSIIRSYTKGWYRQAPGKEWELVAASSGRAGSTYYADSVKGRFTISRDIAKNTVYLQMPGLKPEDTAVYYCAVILGGRAQSYYWGHGTQVTVSS | high polyreactivity
31 | QVQLVESVGRLVQAGGSLRLSCGASGRIFKWYAMGWFRQARGNERELVAAITSRGSTYYADSVKGRFTISRDNAKNTVYLQMNSLKPEDTAVYYCNRYVVHRRDDYWGQGTQVTVSS | high polyreactivity
32 | QVQLVESVGVLVQAGGSLHLSCAASGSTFRYNAIGWYRQAPGKEREVVAAISKRGGSTYYADSVKGRFTISRDNAKNTVYLQMNSLKPEDTAVYYCAASYPSWSTRGESDYWGQGTQVTVSS | high polyreactivity
33 | QVQLVESVLGLVQAGGSLRLICDASGSIFGYNVIGWYRQAPGKERELVAAITGRGDSTYYADSVKGRFTISRDNAKNTVYLQMNSLKPEDTAVYYCAAYPNQSEYYYWGQGTQVTVSS | low polyreactivity
34 | QVQLVESVRGLVQAGGSLRLSCAASGSIFDYNAMGWYREAPGKEREFVASITYSGGSTNYADSVKGRFTISRDNAKNTVYLQMNSLKPEDTAVYYCSKTIGIVWIYYPGARYDYWGQGTQVTVSS | low polyreactivity
35 | QVQLVESVRGLVQAGGTLRLSCAPSGGIFWVYAMGWYRQAPGKERELVAAISNSDTSTSYADSVKGRFTISRVNAKNTVYLQMNSLKPEDTAVYSCNADSPSLSGDYWGQGTQVTVSS | low polyreactivity
36 | QVQLVESVVCLVQAGGSLRLSCAASGSIFRSYAMGWYRQAPGKERELVASISRRGGSTYYADSVKGRFTISRDNAKNTVYLQMNSLKPEDTAVYYCAAVGYNSRVSTTPSEMYYWGQGTQVTVSS | high polyreactivity
37 | QVQLVESVVGLVQAGGSLRLSSAASGGTFSENAMGWYRQAPGKERELVAAITWSVGNTYADSVKGLFTISRDNAKNTVYLQMNSLKPEDTAVYYCAKDFSVPAYDYWGLGTQVTVSS | low polyreactivity
38 | QVQLVESVVGLVQAGRSLRLSCAASGYTFWQYAMGWYRQAPGKERELVATITSRGGSTYYADSVKGRFTISRDTAKNSVYFQMNSLKPEDTAVYYCAARVYYPSTSNAAYGYCGQGTQVTVSS | high polyreactivity
39 | QVQLVESVVGLVQARVSLRLSCASSGFIFRFYTMGWYIQPPGKESEFVPAISWSGTSTYYADSVKGRFTISRDNAKNTVYLQMNSLKPEDTAVYYCAAGYKWKGTVWIMDYWGQGTQVTVSS | high polyreactivity
40 | QVQLVESWGALVQAGGSLRLSCAASRRTFALNAMGWYRQAPGKETELVAAITSSGGSSYYADSVKGRFTISRDIAKNSVYLLMNSLNPVDTAVYYCAADRHYGTEYAYDYWGEGTQVTVSS | low polyreactivity
41 | QVQLVESWGGLVQAAASLRLICDASGRTIRWSAMGWYRPAPGKERELVATITTSGTPSYADSVKGRFTISRDNAKNTVYLQMNSLTPEDTAVYYCAADTYPWGGSSSYDWGQGTQVTVSS | high polyreactivity
42 | QVQLVESWGGLVQAGCRLRLSCAASGRTFLTYVMGWYRQAPGKERELVAAITRGGRTNYADSVKGRFTISRDNAKNTVFLQMNSLKPEDTAVYYCARDDTPRYDYWGQGTQVTVSS | low polyreactivity
43 | QVQLVESWGGLVQAGGSLPLSCAASGFTFVSYAMGWSRQAPGKERELVAAISKRGGSTSYADSVKGRFTISRDNAKNTVYLQMNSLKPEDTAVYYCYKRSYAWSPHVDYWGQGTQVTVSS | high polyreactivity

Source: the nanobody polyreactivity screen of Harvey et al. (2022)
